Laboratory results reported in article PMC8967717 (Nature, 2022).
“And” between values parts separate entries of the source, which are not always exact repeats. Equal entries are not always repeated.

B1: XGv347 monoclonal antibody (antibody, V domains shown)
VH: QMQLVQSGPEVKKPGTSVKVSCKASGFTFTDVSSLQWVRQARGQRLEWIGWTVVGTGNTNYAPRFQERVTITTDKSTSTAYMELSSLRSEDTAVYYCAAPFCSETSCSDGFDLWGQGTKVTVSS
VL: EIVLTQSPGTLSLSPGDRATLSCRASQSVRISYLAWYQQKPGQAPRLLISGSSSRATGIPDRFSASGSGTDFALTISRLEPEDFAVYYCQQYDNSPWTFGQGTKVEVK
notes: copies: 2 + 2
B2: XGv347 (antibody, V domains shown)
VH: B1 VH
VL: B1 VL
B3: XGv347 Fab fragment (Fab, V domains shown)
VH: QMQLVQSGPEVKKPGTSVKVSCKASGFTFTDVSSLQWVRQARGQRLEWIGWTVVGTGNTNYAPRFQERVTITTDKSTSTAYMELSSLRSEDTAVYYCAAPFCSETSCSDGFDLWGQGTKVTVS
VL: EIVLTQSPGTLSLSPGDRATLSCRASQSVRISYLAWYQQKPGQAPRLLISGSSSRATGIPDRFSASGSGTDFTLTISRLEPEDFAVYYCQQYANSPWTFGQGTKVEV
B4: XGv289 Fab fragment (Fab, V domains shown)
VH: QVQLVQSGAEVKKPGASLKVSCRASGYTFTSHFIHWVRQAPGQGLEWMGIINPSGGASYAQNFRDRVTMTTDPSTSTVYMELGSLRSEDTAVYYCARAEGSSWLGWFDPWGQGTLVTVSS
VL: QSVLTQPPSASGTPGQRVTIPCSGSSSNIGNNYVYWYQQLPGTAPKLLVYGNNQRPSGVPDRFSVSKSGTSASLAISGLRSEDEADYYCAAWDDGLSGSGWVFGGGTKLTVL
B5: XGv289 (antibody, V domains shown)
VH: B4 VH
VL: B4 VL
B6: XGv282 monoclonal antibody (antibody, V domains shown)
VH: QVQLVQSGAEVKKPGSSVKVSCKASGDTFSSYTFSWVRQAPGQGLEWMGRSIPIVGKAIYAQEFQGRVTISADRSTTTVYMELSSLRSDDTAVYYCARDQSGFDFFYYDHWGQGTLVAVSS
VL: QSVLTQPPSASGTPGQRVTISCSGSGSNIGSNTINWYQQLPGTAPKVLIYRNNERPSGVPDRFSGSKSGTSASLTISGLQSEDEAYYHCAAWDDSLNGPVFGGGTKLTVL
notes: IgG1; copies: 2 + 2
B7: XGv282 Fab fragment (Fab, V domains shown)
VH: B6 VH
VL: B6 VL
B8: XGv282 (antibody, V domains shown)
VH: B6 VH
VL: B6 VL
B9: XGv265 Fab fragment (Fab, V domains shown)
VH: QITLKESGPTLVKPTQTLTLTCNFSGFSLNTYGVGVGWIRQPPGKALEWLALIYWDGDERYGPFFKNKVTIAKDTSKNQVVLTMTNMDPVDTATYYCARHLIPTIFDYWGQGTLVTVSS
VL: QSALTQPASVSGSPGQSITISCTGTSSDVGGSNYVSWYQHHPDRAPKLLIYEVTNRPSGVSNRFSGSKSANTASLTISGLQAEDEADYYCSSYTTTSTHILFGGGTKLTV
B10: XGv265 (antibody, V domains shown)
VH: B9 VH
VL: B9 VL

Tests used:
[1] = target: T1, SARS-CoV-2 Omicron RBD (ACROBiosystems, cat. no. SPD-C522e) (SARS-CoV-2, Omicron B.1.1.529 (BA.1), G339D | S371L | S373P | S375F | K417N | N440K | G446S | S477N | T478K | E484A | …); assay: BLI; conditions: both partners purified
T1 construct: source: bought: ACROBiosystems

[2] = target: SARS-CoV-2 wild-type spike (S) protein (SARS-CoV-2, WT (MN908947), UniProt P0DTC2); assay: cell-based or functional assay
[3] = target: prefusion-stabilized SARS-CoV-2 Omicron (B.1.1.529) S trimer (SARS-CoV-2, Omicron B.1.1.529 (BA.1), A67V | Δ69–70 | T95I | G142D | Δ143–145 | Δ211 | L212I | ins214EPE | G339D | …); assay: cryo-EM structure; conditions: both partners purified

Binder	authentic virus IC50(μg/ml), Wild-type [2]	pseudovirus IC50(μg/ml), Wild-type [2]	stoichiometry N [3]	further results
B1				fold decrease in binding against WT S [1]: 40 fold
B2	0.0061 µg/mL	0.0685 µg/mL		
B3			3 Fabs per S trimer and 2 Fabs per S trimer	
B4			3 Fabs per S trimer	
B5	0.0061 µg/mL	0.00928 µg/mL		
B6				fold reduction in binding affinity against WT S [1]: 5 fold
B7			3 Fabs per S trimer	
B8	0.00102 µg/mL	0.007 µg/mL		
B9			2 Fabs per S trimer	
B10	0.0122 µg/mL	0.0105 µg/mL		
